Test results reported in publication PMC9930899, “New Insights into rice pyrimidine catabolic enzymes” (Frontiers in Plant Science, 2023).

How the values were obtained:
Assay type in all cases: biochemical, Oryza sativa
purified protein [1] = substrate: O=C1CCNC(=O)N1; assay: purified protein; conditions: 0.1 M potassium buffer, pH 8, 1 mg/mL BSA, 37°C
purified protein [2] = substrate: NC(=O)NCCC(=O)O; assay: purified protein; conditions: 25°C
purified protein [3] = substrate: CC(CNC(N)=O)C(=O)O; assay: purified protein; conditions: 25°C
[4] = substrate: CCCCCCCCCCC1=C(C)C(=O)C(OC)=C(OC)C1=O; assay: steady-state DHODH activity, Michaelis-Menten fit; conditions: co-substrate L-dihydroorotate, 30°C
From the text: (§1) steady-state DHODH activity, Michaelis-Menten fit on OsDHODH

[5] = substrate: O=C1C[C@@H](C(=O)O)NC(=O)N1; assay: steady-state DHODH activity, Michaelis-Menten fit; conditions: co-substrate decylubiquinone, 30°C
From the text: as §1

B1: OsDHP-T1 (Oryza sativa Japonica Group) (protein)
chain: EFCAAVGGGSGGCGVGGGGGGDGRRILIRGGTVVNAHRVEEADVYVEDGVIVAVRPNIPVGDDHVKVIDATGKYVMPGGIDPHTHLEMEFMGTVTIDDFFSGHAAALAGGTTMHIDFVIPVNGNLTAGLESYKQKAEKSAMDYGFHMAITKWNDDVSREMETMVKEHGINSFKFFMAYKGSLMVTDDLLLQGLQKCKSLGALAMVHAENGDAVAEGQQRMIDLGITGPEGHALSRPPVLEGEATARAIRLAKFVNTPLYVVHVMSIDAMDEIAKAKREGQRVIGEPVVSGLVLDDSWLWDPDFMIASKYVMSPPIREAGHNKALQVALSSGILQLVGTDHCTFNSTQKAFGSDDFRKIPNGVNGIEERMHIIWDSMVETGRISVSDYVRVTSTECAKIFNIYPRKGAILEGSDADIIILNPERSFVMGAHTHHSRSNTNVYEGRKGKGMVEVTISRGRVVWEDGILNVVPGSGRYVRTPPYSYLFDGIEKSDAAYRASLRAPVKRGKAAA
notes: N-terminal His-tag, pET19b, E. coli; full length 539 residues, 57,989 Da
Km (purified protein [1]): 300 ± 40 µM
kcat (purified protein [1]): 1.07 ± 0.04 s⁻¹
kcat/Km (purified protein [1]): 3550 M⁻¹ s⁻¹

B2: Osß-UP (Oryza sativa Japonica Group) (protein)
chain: MDSSNGERPPQGEDAPAAAAGSIGGYESLHRLLQSNLSPELFKEASRLLLGLNCGRALEAISLPEATSALAKAHNFDVQAFRFDADKEYLRQPRVIRVGLIQNSIAIPTTSHFADQKKAIMEKVKPMIDAAGDAGVNILCLQEAWTMPFAFCTREKRWCEFAEPVDGESTQFLQQLAKKYNMVIVSPILERDVNHGEIVWNTAVVIGNHGNIIGIHRKNHIPRVGDFNESTYYMEGNTGHPVFETAYGKIGVNICYGRHHPLNWLAFGLNGAEIVFNPSATVGELSEPMWPIEARNAAIANSYFVGSINRVGTEVFPNPFTSGDGKPQHADFGHFYGSSHFSAPDASCTPSLSRYRDGLMISDMDLNLCRQIKDKWGFRMTARYDTYASLLSEYLKPDFKPQVIVDPLINKSA
notes: full length, 413 residues (45,713 Da), N-terminal His-tag, pET15b, E. coli
Km (purified protein [2]): 140 ± 10 µM
kcat (purified protein [2]): 2.54 ± 0.07 s⁻¹
kcat/Km (purified protein [2]): 18100 M⁻¹ s⁻¹
Km (purified protein [3]): 160 ± 20 µM
kcat (purified protein [3]): 1.36 ± 0.07 s⁻¹
kcat/Km (purified protein [3]): 8500 M⁻¹ s⁻¹

B3: OsDHODH (Oryza sativa Japonica Group) (protein)
chain: DEAKFCGWLFKSTQLVNPLFALLDAEFAHRLAVTAASHGFVPREKRPDPSVLGLEIWGRKFTNPIGLAAGFDKNAEAVEGLLGMGFGFVEVGSVTPLPQEGNPKPRIFRLREHGAVINRCGFNSEGIVVVAKRLGAQHGKRKMEETSSSTSPTTSDVKQGGKAGPGILGVNLGKNKISEDATADYVQGVHTLSQYADYLVINVSSPNTPGLRKLQGRKQLKDLVKKVQAARDEMQWAEDGPPPLLVKIAPDLSKQDLEDIAAVALALRLDGLIISNTTISRPSPADTHPLAQEAGGLSGKPLFDLSTNVLREMYILTRGKIPLIGCGGVSSGEDAYKKIRSGATLVQLYTAFAYGGPALIPRIKAELAECLERDGFKSVQEAVGADFK
notes: N-terminally truncated, starts at residue 82 (DEAK); N-terminal His-tag, pET15b, E. coli; full length 469 residues
Km [4]: 4.56 ± 0.67 µM
Km [5]: 29.7 ± 3.5 µM
